From the nanobody polyreactivity screen of Harvey et al. (2022)

Test: yeast display, Sf9 membrane polyspecificity reagent, FACS + sequencing; frameworks hold sequencing errors
Method in brief: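 Synthetic nanobody libraries on Saccharomyces cerevisiae BJ5465 were galactose-induced for 36–48 hours, stained 1 hour at 4 °C with 10% biotinylated, detergent-solubilized Sf9 membrane reagent and enriched on streptavidin microbeads. FACS then separated cells into low and high (top ~1%) gates by anti-HA (expression) and streptavidin (reagent binding) fluorescence. Genes were colony-PCR amplified, MiSeq 2 × 250 sequenced and CDR-length filtered. A clone's polyreactivity label is that of its gate of origin.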

Row | Sequence | polyreactivity (PSR sort gate)
1 | QVQLVESVRGVVQAGGSLRLSCASSVFTFRWYAMGWFRQAPGKESELVADITRHGGSTYYADSVKGRFTISRDNAKNTVYLQMNSLKPEDTAVYYCAADLSWYDWEDDYWGQGTQVTVSS | low polyreactivity
2 | QVQLVESVRRLVQAGGSLRLSCAASGSIYYPYAMGWYRQAPGKEMELVAAITGHGGSTYYADSVKGRFTISRDNAKNTVYLQMNSLNPEDTAVYYCATGGYQPVLHRGYYRFNYWGQGTQVTVSS | low polyreactivity
3 | QVQLVESVVGLDQAGGSHRLSCAASGSIFATYAMGWYRHAPGKERELVAAITTRGGSTYYADSVKGRFTISRDNAKNTVYLLMYSLKPEDTAVYFCNALRWWSYGLNYCGQGTQVTVSS | high polyreactivity
4 | QVQLVESVVGLDQAGGSLSLSCAASAIILYYYSMGWYRQAPGKEREVVAAISSGGNTYYADSVKGRFTISRDNAKNTVYFQMNSLKPEDTAVYYCAAGNVIGGEYDYWGLGTQVTVSS | low polyreactivity
5 | QVQLVESVVGLVQAGCSLRLSCDASGFIFYYYTMGWYRQATGKERELVAAISRSGGRTYYADSVKGLFTISRDYAKNTVYLQMNSMKPDDTAVYYCAADTPYQTPPQQYVEYDYWGQCTQVTVSS | high polyreactivity
6 | QVQLVESVVGLVQAGGSLRLSCAASGRTFRVNAMGWYRQAPGKERELVAAITWSGGTTYYADSVKGRFTISRDNAKNTVYLQMNSLKPEDTAVYYCAADRFWYGSWYDYWGHGTQVTVSS | high polyreactivity
7 | QVQLVESVVGLVQAGGSLRVSCAAYGRTFWYYPMGWYRQAPGKERELVAGITFTGGRTYYADSVKGRFTISRDNAKHTVYLQMNSLKPEDTAVYYCAAAGLVVGRKDRDGYWGLGTQVTVSS | low polyreactivity
8 | QVQLVESWAGLVQAGGSLRLSCAASGSTFSGYTMGWYRQAPGKEREFVAAISSRGGSTYYADSVKGRFTISRDNAKNTVYLHMNSLKPEDTAVYYCAAKVWARVDGRQFRMEYWGQGTQVSVSS | high polyreactivity
9 | QVQLVESWGGLVQAAGSLRLSCAASGFIFRYNTMGSSRQAPAKERESVAAFSVSGARTYYADSVKGRFTISRDNAKNTVYLLMNSLKTEDTAVYYCNRRYPFYSRYNNDYWGQGTQVTVSS | high polyreactivity
10 | QVQLVESWGGLVQAGASLRLSSAASGSIFGSYAMGSYRQAPGKERQLVAAITGIGGSTYYADSVKGRFTITRDNAKNTVYLQLNSLKPEDTAVYYCATRVRYRAPVVRGNYWGQGTQVTVSS | high polyreactivity
11 | QVQLVESWGGLVQAGCSLRISCAASGSTLYSYAMGWNIQAPGKERELVAAINSGSNTYYADSVKGRFTISRDNAKNTVYLQMNSLKPEDTAVYYCAAKGIIYTGYDGARRAYGYWGQGTQVTVSS | high polyreactivity
12 | QVQLVESWGGLVQAGGRLRLSCAASGRTFPGYAMGWYRPAPRKERELVAGISYRGGSTYYADSVKGRFTISRDNAKYTDYLQMNSLNPEDTAVYYCARDYSRHKGDYWGQGTQVTVSS | low polyreactivity
13 | QVQLVESWGGLVQAGGSHRLSCDASGRIFTRNAMGWYRQAHGKERELVAAISYDCGSTYYADSVKVRFTISRDNAKNTVYLQMNSLKPEDTAVYYCATDLYLHGYEYWGQGTQVTVSS | high polyreactivity
14 | QVQLVESWGGLVQAGGSLRLSCAASGFIFDNNALGWYRQAPGKERELVADISRSGGSTYADSVKGRFTISRDNAKNTVYFQMNSLKAEDTAVYYCAKDFQGRRPPKEPSAFYYWGQGTQVTVSS | low polyreactivity
15 | QVQLVESWGGLVQAGGSLRLSCAASGFTFRYYAMGWYRQAPGKERELVAAITGSGTRTYYADSVKGRFTISRDNAKNTVYLQMNSLKPEDTAVYYCNAPRQPRWFDYWGQGTQVTVSS | high polyreactivity
16 | QVQLVESWGGLVQAGGSLRLSCAASGFTFTRNAMGWYRQAPGKERELVAAISKSGGRTYYADSVKGRFTISRDNAKYNVYLQMNSLKPEDTAVYYCAVVPRPFGLGSDYDYWGQGTQVTVSS | high polyreactivity
17 | QVQLVESWGGLVQAGGSLRLSCAASGIIFQNYDMGWYRQARGKERELVAAITGSGGSTYYADSVKGRFTISRDNAKNTVYLQMNSLKPEDTAVYYCNAVWEYYGKSDYWGQGTQVTVSS | low polyreactivity
18 | QVQLVESWGGLVQAGGSLRLSCAASGLTFNYYAMGWYRQAPGKERELVAAITSSGGSTYYADSVKGRFTISRDNAKNTVYLQMNSLKPEDTAVYYCNADVYAHRYIYGFDYWGQGTQVTVSS | high polyreactivity
19 | QVQLVESWGGLVQAGGSLRLSCAASGRIFHRYAMGWYRQAPGKEREFVAAITYSTGTTYYADSVKGRFTISRDNAKITVYLQMNSLKPEDPAVYYCAKDRRFWHKTWFAYGYDYWGQGTQVTVSS | low polyreactivity
20 | QVQLVESWGGLVQAGGSLRLSCAASGRIFRNYVMGWYRQAPGKERELVAAISRSGGSTYYADSVKGRFTISRDNAKNTVYLQMNSLKPEDTAVYYCNADYATRRVSLNYGYWGQGTQVTVSS | high polyreactivity
21 | QVQLVESWGGLVQAGGSLRLSCAASGRTFAYYAMRWYRQAPGKERELVAAISSGGRTNYADSVKGRFTISRDNAKNTVYLQMNSLKPEDTAVYYCARKASYQIYNGQYGGFGYGYWGQGTQVTVSS | high polyreactivity
22 | QVQLVESWGGLVQAGGSLRLSCAASGRTFIRYTMGWYRQAPGKERELVASIRYSGASTSYADSVKGRFTISRDNAKNTVYLQMNSLKPEDTAVYYCAADRYWWWYNSPYSGMDYWGQGTQVTVSS | high polyreactivity

Row | Sequence | polyreactivity (PSR sort gate)
23 | QVQLVESWGGLVQAGGSLRLSCAASGRTFYSNAMGWYRQAPGKERELVAAITSTDDSTYYADSVKGRFTISRDNAKNTVYLQMNSLKPEDTAVYYCNTDGLIAIRGLWWVEYDYWGQGTQVTVSS | low polyreactivity
24 | QVQLVESWGGLVQAGGSLRLSCAASGSTFILYAMGGYRQAPGNERELVAAITSRGVSTYYADSVKGRFTISRDNAKNTVYLQMNSLKPEDTAVYNWAADQYQASYYYWGQGTQVTVSS | low polyreactivity
25 | QVQLVESWGGLVQAGGSLRLSCAASGSTIIGYDMGWYRQAPGKVRELVAAISYSDGTYYADSVKGRFTISRDNAKNTFYLPMNSLKPEDTAVYYCAADSLYYRYDYWGQGTQVTVSW | low polyreactivity
26 | QVQLVESWGGLVQAGGSLRLSCAASGSTISDNAMGWYRQAPGKERELVATIDDDGSTYYADSVKGRFTISRDNAKKTVYLQMNSLKPEDTAVYYCAAEWYGGYPFGYWGQGTQVTVSS | low polyreactivity
27 | QVQLVESWGGLVQAGGSLRLSCAASGYTFSYYAMGWYRPAPWKERELVAAITSTGSTYYADSVKVRFTISRDNAKNTVYLQMNSLKPEDTAVYYCNVDDATVGPVDYWGQGTQVTVSS | low polyreactivity
28 | QVQLVESWGGLVQAGGSLRLSCAATGVTFKFYAMGWYRQAPGKERELVAAISWSGTSTYYADSVKGRFTISRDNAKNTVYLQMNSLKPEDTAVYYCAADKRLRGHGYDYWGQGTQVTVSS | high polyreactivity
29 | QVQLVESWGGLVQAGGSLRLSCDASGSIFVSNAMGWYRQAPGKERELVAAISRGGVNTNYADSVKGRFTISRDNAKNTVYLQMNSLKQEDTAVYYCAAKWSHVRDGPKYDYCGQGTQVTVSS | low polyreactivity
30 | QVQLVESWGGLVQAGGSLRLSCDDSGFTIRVYAMGWYRQAPGKERELVAAISVRGDSTYYADSVKGRFTISRDNAKNTVYLQMNSLKPEDTAVYYCNAVIAPYRRYDYWGQGTQVTVSS | high polyreactivity
31 | QVQLVESWGGLVQAGGSLRLSSAASGLTFWYYAMGCNRQAPGKESELVAAITSVGSSYYADSVKGRFTISRDNAKQTVYLQMNSLKPEDTAVYYCAAGVPPLYFRRGGDYWGQGTQVTVSS | high polyreactivity
32 | QVQLVESWGGLVQARGRLRLSFAASGSTYQNAMRCYRQAPGKEREFVAAISWSGGSTYYGDSVKGRFTISRDNAKNTVYLQMNSLKPEDTAVYYCAAYSYFSPWYDYWGQGTQVTVSS | high polyreactivity
33 | QVQLVESWGGVVQAGGSLRISCAASGFILARYAMGWYRQAPGKERELVAAIRRSGGGTYYADSVKGRFTISRDNAKYTVYLLMKSLKPEDTAVYYCNRDPTYLAYYINYDSWGQGTQVTVSS | high polyreactivity
34 | QVQLVESWRGLVQEGGSLRLSCAASGRTFYSYAMGWYIQAPGKERELVAAITRRGTSTYYADSVKGRFTISRDNAKNTVYLQMNSLKPEDTAVYYCAARLPGTFSYGYWGQGTQVTVSS | high polyreactivity
35 | QVQLVETAGGLVQAGGSLRLSCAASGRIFYGYTLGWYRPAPGKERELVAAISRGGSTYYADSVKGRFTISRDNAKNTVYLQMNSLKPEDPAVYYCAKTYRRRYYPYFHFRYYWGQGTQVTVSS | high polyreactivity
36 | QVQLVETAGGLVQAGGTLRLSCPASGFTIFDNAMGWSRHPPGQERELVAVITKRGGSTYYADSVKGRFTISRYNAKNTVYLQMNILKPEDTAVYYCAADSRFSNFGVTQVTSDYWGQGTQVTVSS | low polyreactivity
37 | QVQLVETGACLVQAGGSLRLSCAASGLTFFGYTMGRYRQAHGKEREFVADITWSGGSTYYADSVKGRFTISRDNAKNTVYLQMNSLKPEDTAVYYCAVAPPNWDPFVDDTYLMDYWGQGTQVTVSS | low polyreactivity
38 | QVQLVETGAGLVQAGGRLRLSCDSSGSTFYVYYMGWYRQSPGKERELVAAISSGAGSTYYADSVKGRFTISRDNAKNTVYLQMNSLTRKIPRSSTALLFTVNGGGSRSHDYWAQGTQVTVSS | low polyreactivity
39 | QVQLVETGGGLFQAGGTLLLSCAASGRIFIRNALVWYRQAPGKEWELVAAIRTRDASTYYADSVKGRFTISRDIAKNTVYLLMNSLKPVDTAVYYCNADTTWPSSSGPTTFGQGDYWGQGTQVTVSS | low polyreactivity
40 | QVQLVETGGGLVHAGGSLRLSCAASGSTISLYARGWYRQAPVKERELVASITWGGGSTYADSVKGRFTISRDNAKNTVYLQLNRLKPEDTAVYYCARKYRYRVLYDFAYDHWGQGTQVTVSS | low polyreactivity
41 | QVQLVETGGGLVQAAGSLRLSTAASGSTYWCNTMGWYRQAPGKERELVADIRTSGGGTYYADSVKGRFTISRDNAKNTVYLQMNRLKPEDTAVYYCNAVPNWEMGSWGLGTQVTVSS | low polyreactivity
42 | QVQLVETGGGLVQAGGILRLSCAASGLTIIYYAMGWYRQSPGKERELVAAISGSVGSTYYADSVQGRFTISRDNAKNTVYLQMNSLKPEDTAVYYCNADRWGFGNVRKYDYWGQGTQVTVSS | low polyreactivity
43 | QVQLVETGGGLVQAGGSHRLSCAASGFTFWYNAMGWYRPAPGKERELVAAIDWRGSSTYYADSVNGRFTISRDNAKNTVYLQMNSLKPEDTAVYYCAADFGDRYVYWAQGTQVTVSS | high polyreactivity
